Literature values, collected in paper PMC4150018.

Target: thrombin (Bos taurus) (UniProt P00735)
Chain of UniProt P00735 (P00735 318-366): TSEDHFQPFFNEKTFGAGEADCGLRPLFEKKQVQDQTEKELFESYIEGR

## rhodniin (Kazal-type thrombin inhibitor) (from UniProt Q06684)
  Ki: 0.2 pM
